Values belong to the molecule of their own block, whether it stands above or below them.
Key:
[1] = target: T1, CD6 (human, UniProt P30203 18-668, tyrosine phosphorylation of the cytoplasmic domain (sites not given)); assay: cell-based or functional assay
T1 construct: whole, on cells; Endogenous CD6 of human PBMCs; also called CD6 receptor; hCD6
T1 sequence (looked up): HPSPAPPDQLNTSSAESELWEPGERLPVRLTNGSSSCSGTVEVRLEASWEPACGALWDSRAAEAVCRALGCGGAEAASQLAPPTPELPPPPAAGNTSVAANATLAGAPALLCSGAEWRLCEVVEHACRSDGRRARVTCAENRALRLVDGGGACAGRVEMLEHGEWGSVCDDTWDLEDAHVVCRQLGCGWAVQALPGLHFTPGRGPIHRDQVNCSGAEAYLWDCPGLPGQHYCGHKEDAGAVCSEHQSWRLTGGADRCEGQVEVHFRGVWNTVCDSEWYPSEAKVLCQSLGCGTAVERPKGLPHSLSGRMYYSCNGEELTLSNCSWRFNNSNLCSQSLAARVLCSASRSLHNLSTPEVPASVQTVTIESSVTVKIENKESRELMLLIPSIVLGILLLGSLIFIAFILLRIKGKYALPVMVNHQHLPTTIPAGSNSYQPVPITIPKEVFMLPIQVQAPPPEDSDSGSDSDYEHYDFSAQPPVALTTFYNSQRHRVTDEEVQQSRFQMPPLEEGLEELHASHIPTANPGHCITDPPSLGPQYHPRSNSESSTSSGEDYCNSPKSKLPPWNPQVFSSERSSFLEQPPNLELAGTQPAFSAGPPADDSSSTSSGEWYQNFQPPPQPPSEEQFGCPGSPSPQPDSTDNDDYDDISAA

[2] = target: T1, CD6; assay: co-immunoprecipitation with CD6 (pulled down by itolizumab) and immunoblot; PBMCs on plate-bound ALCAM against no ALCAM
[3] = target: T1, CD6; assay: immunoprecipitation of CD6 from human PBMC lysates and CD6 immunoblot
Method: In these experiments, PBMC were treated with 0.5 ng/ml anti-CD3 antibody (OKT 3) for 24 h in presence or absence of itolizumab or Iso Ab antibody. Cells were harvested and CD6 was immune-precipitated with itolizumab or Iso Ab. 10% total lysate served as input control samples. Both immune precipitated and input control samples were immune blotted and analyzed.

Molecule: Fc-ALCAM (from UniProt Q13740 28-527) (Fc fusion)
- CD6 tyrosine phosphorylation [1]: > 2.5 fold
- phosphorylation of CD6 associated SHP1 and SHP2 [1]: 3 to 4 fold

Molecule: SLP-76 (from UniProt Q13094 1-533)
- fold increase of association with CD6 [2]: 3 to 4 fold

Other lines, results leading:

- fold increase of association with CD6 [2]: 3 to 4 fold
Molecule: Zap70 (from UniProt P43403 1-619) (enzyme)

- binding result [3]: binds
B1: itolizumab (antibody, human IgG1, kappa, V domains shown)
VH: EVQLVESGGGLVKPGGSLKLSCAASGFKFSRYAMSWVRQAPGKRLEWVATISSGGSYIYYPDSVKGRFTISRDNVKNTLYLQMSSLRSEDTAMYYCARRDYDLDYFDSWGQGTLVTVSS
VL: DIQMTQSPSSLSASVGDRVTITCKASRDIRSYLTWYQQKPGKAPKTLIYYATSLADGVPSRFSGSGSGQDYSLTISSLESDDTATYYCLQHGESPFTLGSGTKLEIKR
notes: Humanized IgG1, produced at Biocon Ltd, used in soluble form; also called T1h; humanized IgG1 isotype anti-CD6 monoclonal antibody
